Results on 1 molecule are retold here after patent US20020193329A1 (published 2002).

This assay concerns the target T1, Her-2/neu peptide on HLA-B*44:02 (human).
T1 peptide: EEYLVPQQGF
The assay can be described thus: cytokine release. On the procedure: This example describes the charaterization of the epitope recognized by one of the T cell clones described above, 17D5. This clone recognized APC expressing the ICD or full-length Her-2/neu protein. The HLA-restriction element for the clone was determined to be HLA-B4402 by using a panel of allogenic cell lines matched at various HLA alleles with the T cell clone as APC in gamma interferon Elispot assays. This was confirmed by transduction of HLA-B44-negative, Her-2/neu-positive APC with a B4402-recombinant retrovirus to confer recognition. The region of the ICD recognized by the clone was narrowed by using recombinant retroviruses expressing a series of five fragments of the ICD to transduce B44+APC. […] Predicted B44-binding 9 mer and 10 mer peptides from within this fragment were chosen and synthesized. Of the 13 peptides synthesized, one was recognized by the clone and determined to be the epitope. […] The sequence of this naturally processed Her-2/neu epitope is: […] (SEQ ID NO: 3), position 1021-1030 in the Her-2/neu protein sequence.

B1: TCR of the 17D5 T cell clone (TCR, V domains shown)
Valpha: AQSVAQPEDQVNVAEGNPLTVKCTYSVSGNPYLFWYVQYPNRGLQFLLKYITGDNLVKGSYGFEAEFNKSQTSFHLKKPSALVSDSALYFCAVRPNSGYSTLTFGKGTMLLVSP
Vbeta: EAQVTQNPRYLITVTGKKLTVTCSQNMNHEYMSWYRQDPGLGLRQIYYSMNVEVTDKGDVPEGYKVSRKEKRNFPLILESPSPNQTSLYFCASSLDWGGLAGGLGTDTQYFGPGTRLTVL
Turning to B1, the binding result is listed as “recognises”.
